Measurements taken from PMC2113854.

Legend:
[1] = target: EGF/TGF-alpha receptor of normal rat kidney (NRK) cells (170-kD receptor species) (rat (endogenous in NRK)); assay: radioligand binding
[2] = target: EGF/TGF-alpha receptor of A431 cells (human (endogenous in A431)) (UniProt P00533); assay: radioligand binding

Substance: 125I-labeled mouse submaxillary gland epidermal growth factor (125I-EGF) (ligand)
- specific binding at 0.3 nM ligand, monolayers not treated with TGF-beta (Fig. 2) [1]: 785 cpm/well

Substance: 125I-labeled transforming growth factor-alpha (125I-TGF-alpha) (from UniProt P01134 39-88) (ligand)
- 125I-TGF-alpha bound with 66 nM TGF-beta (NRK membranes) (fmol/mg protein) [1]: 5.6
- 125I-TGF-alpha bound with 330 nM TGF-beta (NRK membranes) (fmol/mg protein) [1]: 5.6
- 125I-TGF-alpha bound, no competing ligand (NRK membranes) (fmol/mg protein) [1]: 5.4
- Kd, high-affinity sites [1]: 0.2 to 0.3 nM
- Kd, low-affinity sites [1]: 2.7 to 2.9 nM
- specific binding at 0.3 nM ligand, cells not treated with TGF-beta (Fig. 1A) [1]: 810 cpm/well

Substance: mouse submaxillary gland epidermal growth factor (native, unlabeled EGF) (ligand)
- 125I-TGF-alpha bound with 66 nM EGF (A431 membranes) (fmol/mg protein) [2]: 140
- 125I-TGF-alpha bound with 66 nM EGF (NRK membranes) (fmol/mg protein) [1]: 1.6

Substance: transforming growth factor-alpha (native, unlabeled TGF-alpha) (from UniProt P01134 39-88) (ligand)
- 125I-TGF-alpha bound with 66 nM TGF-alpha (NRK membranes) (fmol/mg protein) [1]: 1.2
